Data from publication PMC7948976, “KIF3A accelerates KIF3C within the kinesin-2 heterodimer to generate symmetrical phosphate release rates for each processive step” (The Journal of Biological Chemistry, 2020).

What was measured:
Experiment in all cases: stopped-flow presteady-state phosphate release, MDCC-PBP fluorescence; hyperbolic fit of initial exponential rates
Type in all cases: biochemical, Mus musculus
[1] = substrate: Nc1ncnc2c1ncn2[C@@H]1O[C@H](COP(=O)(O)OP(=O)(O)OP(=O)(O)O)[C@@H](O)[C@H]1O; settings: preformed microtubule-KIF3 complex (2 μM MT, 0.5 μM dimer in syringe), 250 mM KCl in ATP syringe, 5 mM magnesium acetate, pH 7.2, 25 °C, not steady-state Km
From the text: stopped-flow presteady-state phosphate release, MDCC-PBP fluorescence; hyperbolic fit of initial exponential rates on KIF3AC

[2] = substrate: Nc1ncnc2c1ncn2[C@@H]1O[C@H](COP(=O)(O)OP(=O)(O)OP(=O)(O)O)[C@@H](O)[C@H]1O; settings: preformed microtubule-KIF3 complex (2 μM MT, 0.5 μM dimer in syringe), 300 mM KCl in ATP syringe, 5 mM magnesium acetate, pH 7.2, 25 °C, not steady-state Km
From the text: stopped-flow presteady-state phosphate release, MDCC-PBP fluorescence; hyperbolic fit of initial exponential rates on KIF3AA

[3] = substrate: Nc1ncnc2c1ncn2[C@@H]1O[C@H](COP(=O)(O)OP(=O)(O)OP(=O)(O)O)[C@@H](O)[C@H]1O; settings: preformed microtubule-KIF3 complex (2 μM MT, 0.5 μM dimer in syringe), 300 mM KCl in ATP syringe, 5 mM magnesium acetate, pH 7.2, 25 °C, not steady-state Km; remark: listed apart in the source
From the text: stopped-flow presteady-state phosphate release, MDCC-PBP fluorescence; hyperbolic fit of initial exponential rates on KIF3CC

B1: KIF3AC (Mus musculus) (protein)
chain 1: MPINKSEKPESCDNVKVVVRCRPLNEREKSMCYRQAVSVDEMRGTITVHKTDSSNEPPKTFTFDTVFGPESKQLDVYNLTARPIIDSVLEGYNGTIFAYGQTGTGKTFTMEGVRAVPGLRGVIPNSFAHIFGHIAKAEGDTRFLVRVSYLEIYNEEVRDLLGKDQTQRLEVKERPDVGVYIKDLSAYVVNNADDMDRIMTLGHKNRSVGATNMNEHSSRSHAIFTITIECSEKGVDGNMHVRMGKLHLVDLAGSERQAKTGATGQRLKEATKINLSLSTLGNVISALVDGKSTHVPYRNSKLTRLLQDSLGGNSKTMMCANIGPADYNYDETISTLRYANRAKNIKNKARINEDPKDALLRQFQKEIEELKKKL
chain 2: MASKTKASEALKVVARCRPLSRKEEAAGHEQILTMDVKLGQVTLRNPRAAPGELPKTFTFDAVYDASSKQADLYDETVRPLIDSVLQGFNGTVFAYGQTGTGKTYTMQGTWVEPELRGVIPNAFEHIFTHISRSQNQQYLVRASYLEIYQEEIRDLLSKEPGKRLELKENPETGVYIKDLSSFVTKNVKEIEHVMNLGNQARAVGSTHMNEVSSRSHAIFVITVECSERGSDGQDHIRVGKLNLVDLAGSERQNKAGPNAAGGPATQPTAGGGSGSGSASGSASSGERPKEASKINLSLSALGNVIAALAGNRSTHIPYRDSKLTRLLQDSLGGNAKTIMVATLGPASHSYDESLSTLRFANRAKNIKNKPRVNEDPKDTLLREFQEEIARLKAQL
notes: heterodimer; motor domain, neck linker and helix α7 (KIF3A Met1-Leu374, KIF3C Met1-Leu396), each fused to EB1 dimerization domain; KIF3A StrepII tag, KIF3C His8 tag, tags not cleaved; E. coli; dimer MW 98,318
[1]
  K0.5: 28.2 ± 1.8 µM

B2: KIF3AA (Mus musculus) (protein)
chain: MPINKSEKPESCDNVKVVVRCRPLNEREKSMCYRQAVSVDEMRGTITVHKTDSSNEPPKTFTFDTVFGPESKQLDVYNLTARPIIDSVLEGYNGTIFAYGQTGTGKTFTMEGVRAVPGLRGVIPNSFAHIFGHIAKAEGDTRFLVRVSYLEIYNEEVRDLLGKDQTQRLEVKERPDVGVYIKDLSAYVVNNADDMDRIMTLGHKNRSVGATNMNEHSSRSHAIFTITIECSEKGVDGNMHVRMGKLHLVDLAGSERQAKTGATGQRLKEATKINLSLSTLGNVISALVDGKSTHVPYRNSKLTRLLQDSLGGNSKTMMCANIGPADYNYDETISTLRYANRAKNIKNKARINEDPKDALLRQFQKEIEELKKKL
notes: engineered homodimer; motor domain Met1-Leu374 fused to EB1 dimerization domain; His8 tag not cleaved; E. coli; dimer MW 97,004
[2]
  K0.5: 30.9 ± 4.7 µM

B3: KIF3CC (Mus musculus) (protein)
chain: MASKTKASEALKVVARCRPLSRKEEAAGHEQILTMDVKLGQVTLRNPRAAPGELPKTFTFDAVYDASSKQADLYDETVRPLIDSVLQGFNGTVFAYGQTGTGKTYTMQGTWVEPELRGVIPNAFEHIFTHISRSQNQQYLVRASYLEIYQEEIRDLLSKEPGKRLELKENPETGVYIKDLSSFVTKNVKEIEHVMNLGNQARAVGSTHMNEVSSRSHAIFVITVECSERGSDGQDHIRVGKLNLVDLAGSERQNKAGPNAAGGPATQPTAGGGSGSGSASGSASSGERPKEASKINLSLSALGNVIAALAGNRSTHIPYRDSKLTRLLQDSLGGNAKTIMVATLGPASHSYDESLSTLRFANRAKNIKNKPRVNEDPKDTLLREFQEEIARLKAQL
notes: engineered homodimer; motor domain, neck linker and helix α7 (Met1-Leu396) fused to EB1 dimerization domain; His8 tag not cleaved; E. coli; dimer MW 99,518 (borders printed for the KIF3C chain of KIF3AC; mass agrees)
[3]
  K0.5: 13.9 ± 3.5 µM
